From patent US7572450
Side chains are listed from the residue outwards. Ends that are not written are not given here. maleimide = maleimide-activated rabbit IgG carrier, to which the peptide is conjugated through its cysteine; rabbit IgG = rabbit IgG carrier (maleimide-activated), conjugated to the peptide

The binders below were run against AD7C-NTP neural thread protein (purified recombinant AD7C-NTP) (assay: cell-based or functional assay).

| Binder | reduction in tissue necrosis (rat injection sites, histopathology at 24 hours) [%] |
| --- | --- |
| LHARLCLANFCGRNRV (also: conjugated through a cysteine to maleimide-activated rabbit IgG) [Harlil sequence NTP-1] | > 95 |
| C([maleimide-rabbit IgG])ARYRTGHHARLM [Harlil sequence NTP-3] | > 95 |
| DNTHHARLIL (also: conjugated to maleimide-activated rabbit IgG, mode not given here) [Harlil sequence NTP-7] | > 95 |
